In paper PMC4686830, “Ankyrin-mediated self-protection during cell invasion by the bacterial predator Bdellovibrio bacteriovorus” (Nature Communications, 2015):

What was measured:
[1] = target: T1, Bd3459:Bd3460 complex (Bd3459^M/Bd3460) (Bdellovibrio bacteriovorus, UniProt Q6MHT0, K38M); assay: X-ray crystallography, […] A, crystal soak; type: binding; conditions: covalent; acylation of active-site serine (Ser70) of Bd3459; pre-grown complex crystals soaked with 2 mM penicillin G for 1 h
T1 construct: 1:1 heterodimer; with Ankyrin repeat protein (self-protection protein)
T1 sequence (Q6MHT0 38-446 K38M): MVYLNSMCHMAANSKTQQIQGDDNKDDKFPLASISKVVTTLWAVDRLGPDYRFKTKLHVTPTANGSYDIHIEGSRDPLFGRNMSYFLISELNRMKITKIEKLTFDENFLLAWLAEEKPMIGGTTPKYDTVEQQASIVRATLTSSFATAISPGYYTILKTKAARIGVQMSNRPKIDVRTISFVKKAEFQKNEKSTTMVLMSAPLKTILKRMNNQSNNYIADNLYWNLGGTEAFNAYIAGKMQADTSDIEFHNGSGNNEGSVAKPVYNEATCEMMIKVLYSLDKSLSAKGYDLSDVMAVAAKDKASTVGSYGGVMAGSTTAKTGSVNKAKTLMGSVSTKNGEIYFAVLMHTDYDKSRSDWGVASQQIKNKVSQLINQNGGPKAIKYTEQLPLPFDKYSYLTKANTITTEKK
T1 sequence (Q6MHS9 25-220 A25M partner limits assumed): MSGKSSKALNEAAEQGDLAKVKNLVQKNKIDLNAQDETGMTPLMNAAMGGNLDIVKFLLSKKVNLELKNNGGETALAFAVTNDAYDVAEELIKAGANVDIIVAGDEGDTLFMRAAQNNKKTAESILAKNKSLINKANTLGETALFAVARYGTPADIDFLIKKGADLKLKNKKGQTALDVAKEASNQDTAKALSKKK

[2] = target: Bd3459 DD-endopeptidase, purified, active site serine acylated by penicillin G (Bdellovibrio bacteriovorus HD100) (UniProt Q6MHT0); assay: other fluorescence titration; as a2, but Bd3459 pre-incubated with 0.75 mM penicillin G before titration with Bd3460
[3] = target: Bd3459 DD-endopeptidase, purified (original construct, A37M start) (Bdellovibrio bacteriovorus HD100) (UniProt Q6MHT0); assay: other fluorescence titration; intrinsic tryptophan fluorescence, excitation 280 nm, change of emission at 340 nm; 10 uM Bd3459 in the cuvette, Bd3460 titrated in; 25 °C; buffer B with Tris (10 mM pH 7.2, 0.25 M NaCl); one site-specific binding isotherm
[4] = target: T2, Bd3459 DD-endopeptidase, new construct starting post signal peptide with K38M, C-terminal H8 tag (Bdellovibrio bacteriovorus HD100, UniProt Q6MHT0 38-446, K38M); assay: co-purification (His-tag affinity); H8-tagged endopeptidase and untagged Bd3460 co-expressed in E. coli and purified together on a His column; buffer C (20 mM imidazole pH 8.0, 0.4 M NaCl, 0.05% w/v Tween20); conditions: partners not purified
T2 construct: Bd3459 of Bdellovibrio bacteriovorus HD100, predicted secreted form, starting post signal peptide with K38 mutated to become the new N-terminal methionine; The active site serine S70 is unchanged: the crystals of this complex could be acylated with penicillin G. PDB 5CEB holds the same limits with S70A; also called tagged Bd3459; Bd3459^M; source: E. coli T7 express, co-expressed from pCDF-Duet1 …
T2 sequence (looked up): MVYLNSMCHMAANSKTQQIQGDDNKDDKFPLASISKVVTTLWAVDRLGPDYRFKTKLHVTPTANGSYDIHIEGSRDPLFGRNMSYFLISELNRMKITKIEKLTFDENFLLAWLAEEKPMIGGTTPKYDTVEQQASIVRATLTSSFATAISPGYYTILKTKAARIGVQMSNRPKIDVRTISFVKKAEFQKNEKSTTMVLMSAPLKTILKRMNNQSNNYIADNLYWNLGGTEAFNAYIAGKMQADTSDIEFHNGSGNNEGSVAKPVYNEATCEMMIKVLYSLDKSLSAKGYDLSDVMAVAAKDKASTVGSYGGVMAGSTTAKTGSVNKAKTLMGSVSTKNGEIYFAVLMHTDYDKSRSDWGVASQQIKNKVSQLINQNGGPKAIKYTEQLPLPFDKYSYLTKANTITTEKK

[5] = target: T3, Bd0816 DD-endopeptidase S58A (K26M start, C-terminal H8 tag) (Bdellovibrio bacteriovorus HD100, UniProt Q6MPN2 26-436, K26M | S58A); assay: as above; conditions: partners not purified
T3 construct: Bd0816 of Bdellovibrio bacteriovorus HD100, starting at K26M; active site serine mutated to alanine (S58A); Expression of wild-type Bd0816 was toxic, so the S58A mutant was used for the complex; It is a trimer in the crystal, while a 1:1 heterodimer with Bd3460 is said to dominate in solution; also called Bd0816 S58A; tagged Bd0816; source: E. coli T7 express, co-expressed from pCDF-Duet1 with …
T3 sequence (looked up): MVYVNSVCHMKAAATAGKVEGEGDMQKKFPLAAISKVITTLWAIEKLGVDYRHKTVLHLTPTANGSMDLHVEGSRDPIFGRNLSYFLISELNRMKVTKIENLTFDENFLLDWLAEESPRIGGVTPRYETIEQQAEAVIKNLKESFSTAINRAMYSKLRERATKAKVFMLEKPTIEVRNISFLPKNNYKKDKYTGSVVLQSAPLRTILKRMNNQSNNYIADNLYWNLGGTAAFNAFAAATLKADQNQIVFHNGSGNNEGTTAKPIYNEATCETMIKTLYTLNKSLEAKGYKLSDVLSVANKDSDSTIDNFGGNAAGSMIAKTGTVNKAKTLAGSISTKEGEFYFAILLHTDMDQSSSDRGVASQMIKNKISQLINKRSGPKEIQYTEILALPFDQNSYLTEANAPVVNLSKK

## CC1(C)S[C@@H]2[C@H](NC(=O)Cc3ccccc3)C(=O)N2[C@H]1C(=O)O [penicillin G]
[1]
  X-ray crystallography, 2.02 A, crystal soak: acylating pre-grown Bd3459:Bd3460 complex crystals with penicillin G

B1: Bd3460, exported domain (amino acids 26-220), untagged, co-expressed with an endopeptidase (natural protein, Bdellovibrio bacteriovorus HD100, UniProt Q6MHS9 25-220, looked up)
chain: MSGKSSKALNEAAEQGDLAKVKNLVQKNKIDLNAQDETGMTPLMNAAMGGNLDIVKFLLSKKVNLELKNNGGETALAFAVTNDAYDVAEELIKAGANVDIIVAGDEGDTLFMRAAQNNKKTAESILAKNKSLINKANTLGETALFAVARYGTPADIDFLIKKGADLKLKNKKGQTALDVAKEASNQDTAKALSKKK
notes: The only change is the start methionine in place of A25; also called untagged Bd3460; source: E. coli T7 express, co-expressed from pCDF-Duet1 with the H8-tagged endopeptidase, co-purified (His column)
[2]
  fold reduction in affinity against unacylated Bd3459: 2 fold
[3]
  Kd: 26.8 µM
[4]
  stoichiometry N: 1
[5]
  stoichiometry N: 1
